From patent US7122382 come the findings set out here.

For one assay, the target named is p53 (UniProt P02340). Kind of assay: biotinylated row protein on streptavidin beads, 35S column protein counted.
The target in assay [1] is luciferase [luciferase: P08659]. The description is as above.
A further assay addresses streptoavidin beads (UniProt P22629). Kind of assay: five 35S-labelled proteins alone on streptavidin beads, no biotinylated protein.
In a further assay the target is Fos (UniProt P01101). Kind of assay: biotinylated row protein on streptavidin beads, 35S column protein counted.
Fos, sequence (P01101 whole entry): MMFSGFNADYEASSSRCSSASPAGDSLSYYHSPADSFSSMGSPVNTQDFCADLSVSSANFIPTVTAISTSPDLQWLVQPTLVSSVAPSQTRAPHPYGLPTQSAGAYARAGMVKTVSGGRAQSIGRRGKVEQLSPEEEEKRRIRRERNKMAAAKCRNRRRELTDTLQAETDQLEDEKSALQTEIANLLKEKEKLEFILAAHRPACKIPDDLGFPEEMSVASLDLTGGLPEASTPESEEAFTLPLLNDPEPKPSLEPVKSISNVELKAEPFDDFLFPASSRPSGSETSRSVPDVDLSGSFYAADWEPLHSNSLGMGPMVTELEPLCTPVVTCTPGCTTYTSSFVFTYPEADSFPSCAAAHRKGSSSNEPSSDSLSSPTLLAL
The target in another assay is Jun (UniProt P05627). Described as above.
Jun, sequence (P05627 whole entry): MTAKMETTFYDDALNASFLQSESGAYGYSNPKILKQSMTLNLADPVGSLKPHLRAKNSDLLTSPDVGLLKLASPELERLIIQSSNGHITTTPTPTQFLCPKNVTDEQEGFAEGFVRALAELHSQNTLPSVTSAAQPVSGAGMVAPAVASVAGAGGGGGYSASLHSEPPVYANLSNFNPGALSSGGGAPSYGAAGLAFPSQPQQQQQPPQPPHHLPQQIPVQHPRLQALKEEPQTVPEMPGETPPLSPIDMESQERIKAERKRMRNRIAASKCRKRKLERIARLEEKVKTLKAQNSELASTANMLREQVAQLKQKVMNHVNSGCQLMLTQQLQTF
For a further assay, the target named is SV40 large T (SV40) (UniProt P03070). The description is as above.

luciferase [luciferase: P08659], sequence (P08659 whole entry): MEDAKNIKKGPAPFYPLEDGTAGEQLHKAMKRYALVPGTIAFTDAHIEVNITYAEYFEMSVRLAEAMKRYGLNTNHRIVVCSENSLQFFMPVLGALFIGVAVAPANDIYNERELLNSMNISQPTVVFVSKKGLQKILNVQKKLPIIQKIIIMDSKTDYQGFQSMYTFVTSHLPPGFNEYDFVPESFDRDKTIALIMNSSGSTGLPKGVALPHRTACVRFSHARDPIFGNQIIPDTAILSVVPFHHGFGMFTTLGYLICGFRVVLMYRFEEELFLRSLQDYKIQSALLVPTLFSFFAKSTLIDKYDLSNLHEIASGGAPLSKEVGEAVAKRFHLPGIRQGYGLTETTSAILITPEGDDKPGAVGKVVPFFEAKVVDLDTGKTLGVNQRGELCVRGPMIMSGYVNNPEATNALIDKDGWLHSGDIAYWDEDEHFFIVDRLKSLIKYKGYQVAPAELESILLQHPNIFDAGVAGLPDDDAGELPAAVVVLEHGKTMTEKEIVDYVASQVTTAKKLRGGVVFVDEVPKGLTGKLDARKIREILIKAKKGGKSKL
p53, sequence (P02340 whole entry): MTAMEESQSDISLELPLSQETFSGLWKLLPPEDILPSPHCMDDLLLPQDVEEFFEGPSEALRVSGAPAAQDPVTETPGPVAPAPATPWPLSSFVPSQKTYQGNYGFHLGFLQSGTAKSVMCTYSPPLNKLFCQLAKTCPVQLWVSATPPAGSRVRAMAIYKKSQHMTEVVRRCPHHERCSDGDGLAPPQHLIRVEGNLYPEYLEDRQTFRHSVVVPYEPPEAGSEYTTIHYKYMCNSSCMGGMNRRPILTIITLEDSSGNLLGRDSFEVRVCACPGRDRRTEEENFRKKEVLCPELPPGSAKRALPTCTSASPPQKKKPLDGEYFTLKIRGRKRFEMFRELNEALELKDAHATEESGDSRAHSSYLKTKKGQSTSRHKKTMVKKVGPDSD
streptoavidin beads, sequence (P22629 37-163): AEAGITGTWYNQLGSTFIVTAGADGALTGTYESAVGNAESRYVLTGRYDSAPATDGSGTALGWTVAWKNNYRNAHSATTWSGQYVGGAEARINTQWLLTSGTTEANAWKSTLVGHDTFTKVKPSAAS

Substance p53 (from UniProt P02340 1-390) showed an RI (c.p.m.) with p53 of 200 c.p.m. Consider “SV40 large T (from UniProt P03070 1-708) (other; other documents disagree on this pair)”, for which the RI (c.p.m.) stood at 208 c.p.m in assay [1] and 1400 c.p.m with p53.

“mixture of the five proteins of Reference Examples 1 and 2 (Fos, Jun, luciferase, SV40 large T, p53)”: the RI (cpm), background without biotinylated proteins with streptoavidin beads stood at 447 cpm. With “SV40 large T (from UniProt P03070 1-708)”, the RI (c.p.m.) was 197 c.p.m with Fos, 197 c.p.m with Jun and 551 c.p.m in the assay with SV40 large T (SV40).
